Laboratory results taken from patent publication US20090208538A1 (published 2009).

Tests used:
[1] = biological target: T1, cdr2, human peptide on HLA-A*02:01 (human); assay: cytokine release
T1 peptide: SLLEEMFLT

[2] = biological target: T2, cdr2, human peptide on HLA-A*02:01 (human); assay: cytokine release
T2 peptide: SLLEEMFLTV

[3] = biological target: T3, cdr2 (cerebellar degeneration-related 2 protein), human peptide on HLA-A*02:01 (human); assay: multimer staining
T3 peptide: LLEEMFLTV

- binding result [1]: no recognition
- binding result [2]: recognises
- binding result [3]: recognises
B1: cdr2 TCR (clone 11/12) (TCR, V domains shown)
Valpha: QQQVRQSPQSLTVWEGGTTVLTCSYEDSTFNYFPWYQQFPGEGPALLISILSVSDKKEDGRFTTFFNKREKKLSLHIIDSQPGDSATYFCAASGASGGSNAKLTFGKGTKLSVKS
Vbeta: DSGVVQSPRHIIKEKGGRSVLTCIPISGHSNVVWYQQTLGKELKFLIQHYEKVERDKGFLPSRFSVQQFDDYHSEMNMSALELEDSAMYFCASSLGGWAEQFFGPGTRLTVL
